Literature values as cited in PMC12818765.

Assays:
Lys33 = Lys33 (UniProt position 51, WVCAAKFESNF)
Tyr53 = Tyr53 (UniProt position 71, DGSTDYGILQI)
Tyr23 = Tyr23 (UniProt position 41, DNYRGYSLGNW)
Tyr20 = Tyr20 (UniProt position 38, HGLDNYRGYSL)
Asp52 = Asp52 (UniProt position 70, TDGSTDYGILQ)
Glu35 = Glu35 (UniProt position 53, CAAKFESNFNT)
Glu7 = Glu7 (UniProt position 25, VFGRCELAAAM)
Asp119 = Asp119 (UniProt position 137, RCKGTDVQAWI)
Lys96 = Lys96 (UniProt position 114, SVNCAKKIVSD)
Asp18 = Asp18 (UniProt position 36, KRHGLDNYRGY)
Lys116 = Lys116 (UniProt position 134, WRNRCKGTDVQ)
Asp48 = Asp48 (UniProt position 66, TNRNTDGSTDY)
Asp87 = Asp87 (UniProt position 105, ALLSSDITASV)
Asp66 = Asp66 (UniProt position 84, RWWCNDGRTPG)
Lys97 = Lys97 (UniProt position 115, VNCAKKIVSDG)
Nterm1 = Nterm1 (UniProt position 19, LAALGKVFGRC)
Lys13 = Lys13 (UniProt position 31, LAAAMKRHGLD)
Cterm129 = Cterm129 (UniProt position 147, IRGCRL-----)
His15 = His15 (UniProt position 33, AAMKRHGLDNY)
Asp101 = Asp101 (UniProt position 119, KKIVSDGNGMN)
Lys1 = Lys1 (UniProt position 19, LAALGKVFGRC)
Glu122 = Glu122 (UniProt position 204, PNNTHEQHLRK); settings: not stated
Asp40 = Asp40 (UniProt position 122, RLLLVDTPETK); settings: not stated
Asp95 = Asp95 (UniProt position 177, AYIYADGKMVN); settings: not stated
Glu73 = Glu73 (UniProt position 155, NAKKIEVEFDK); settings: not stated
Glu10 = Glu10 (UniProt position 92, KKLHKEPATLI); settings: not stated
Glu43 = Glu43 (UniProt position 125, LVDTPETKHPK); settings: not stated
Glu129 = Glu129 (UniProt position 211, HLRKSEAQAKK); settings: not stated
Glu67 = Glu67 (UniProt position 149, TKKMVENAKKI); settings: not stated
Glu75 = Glu75 (UniProt position 157, KKIEVEFDKGQ); settings: not stated
Glu57 = Glu57 (UniProt position 139, EKYGPEASAFT); settings: not stated
Glu101 = Glu101 (UniProt position 183, GKMVNEALVRQ); settings: not stated
Glu135 = Glu135 (UniProt position 217, AQAKKEKLNIW); settings: not stated
Glu52 = Glu52 (UniProt position 134, PKKGVEKYGPE); settings: not stated
His46 = His46 (UniProt position 128, TPETKHPKKGV); settings: not stated
His121 = His121 (UniProt position 203, KPNNTHEQHLR); settings: not stated
His8 = His8 (UniProt position 90, STKKLHKEPAT); settings: not stated
His124 = His124 (UniProt position 206, NTHEQHLRKSE); settings: not stated

## Hen egg-white lysozyme (HEWL, lysozyme C) (Gallus gallus)
Lys33
  pKa: 10.60
Tyr53
  pKa: 12.10
Tyr23
  pKa: 9.80
Tyr20
  pKa: 10.30
Asp52
  pKa: 3.68
Glu35
  pKa: 6.20
Glu7
  pKa: 2.85
Asp119
  pKa: 3.20
Lys96
  pKa: 10.80
Asp18
  pKa: 2.66
Lys116
  pKa: 10.40
Asp48
  pKa: 1.60
Asp87
  pKa: 2.07
Asp66
  pKa: 0.90
Lys97
  pKa: 10.30
Nterm1
  pKa: 7.90
Lys13
  pKa: 10.60
Cterm129
  pKa: 2.75
His15
  pKa: 5.36
Asp101
  pKa: 4.09
Lys1
  pKa: 10.90

## Staphylococcal nuclease (SNase), form used for the Asp/Glu pKa values (Staphylococcus aureus)
Glu122
  pKa: 3.89
Asp40
  pKa: 3.87
Asp95
  pKa: 2.16
Glu73
  pKa: 3.31
Glu10
  pKa: 2.82
Glu43
  pKa: 4.32
Glu129
  pKa: 3.75
Glu67
  pKa: 3.76
Glu75
  pKa: 3.26
Glu57
  pKa: 3.49
Glu101
  pKa: 3.81
Glu135
  pKa: 3.76
Glu52
  pKa: 3.93

## Staphylococcal nuclease (SNase), form used for the histidine pKa values (Staphylococcus aureus)
His46
  pKa: 5.86
His121
  pKa: 5.30
His8
  pKa: 6.52
His124
  pKa: 5.73
